Assay results from publication PMC3574117.

How the values were obtained:
[1] = target: PhaF phasin from Pseudomonas putida KT2440 (Pseudomonas putida KT2440); assay: AUC; sedimentation equilibrium, short columns, 10000 and 16000 rpm, 20 mM sodium phosphate pH 7.0, 150 mM NaCl, 20 °C; single-species fit
[2] = target: PhaF phasin from Pseudomonas putida KT2440 (Pseudomonas putida KT2440); assay: AUC; sedimentation velocity; 38 µM PhaF (3.8 to 38 µM, data not shown) in 20 mM sodium phosphate pH 7.0, 150 mM NaCl, 48000 rpm, 20 °C; c(s) analysis

Substance “PhaF phasin from Pseudomonas putida KT2440 (natural protein)” has a stoichiometry N [1] of 4 and a stoichiometry N [2] of 4.
